Reference: US20110293593A1, “SIVA 2 STABILIZATION” (YEDA RESEARCH AND DEVELOPMENT CO., LTD., priority 2008, published 2011)

Key:
TRAF2 = target: T1, TRAF2 (Homo sapiens, UniProt Q12933); experiment: In-vitro protein-binding assay, TRAF2; settings: FLAG-TRAF2 incubated with GST-SIVA2
T1 construct: made in house; host or cells: HEK293T (FLAG-TRAF2); bacteria, pGEX2T (GST-SIVA2)
T1 sequence (Q12933 1-501): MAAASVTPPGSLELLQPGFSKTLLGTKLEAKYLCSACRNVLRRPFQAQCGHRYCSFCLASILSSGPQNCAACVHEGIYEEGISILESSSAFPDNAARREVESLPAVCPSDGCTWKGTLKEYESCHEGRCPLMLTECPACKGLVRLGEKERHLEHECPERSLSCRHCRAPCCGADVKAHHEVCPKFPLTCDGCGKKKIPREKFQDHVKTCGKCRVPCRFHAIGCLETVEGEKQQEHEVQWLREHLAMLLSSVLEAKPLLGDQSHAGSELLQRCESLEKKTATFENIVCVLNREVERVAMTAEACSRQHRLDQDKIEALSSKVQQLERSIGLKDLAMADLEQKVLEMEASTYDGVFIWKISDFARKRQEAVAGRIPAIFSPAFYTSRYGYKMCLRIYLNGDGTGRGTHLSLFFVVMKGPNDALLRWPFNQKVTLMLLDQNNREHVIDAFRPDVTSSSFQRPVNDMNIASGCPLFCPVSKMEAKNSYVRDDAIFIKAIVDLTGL
Protocol: (§1) (A) Transfected SIVA2 binds to endogenous TRAF2. FLAG-SIVA2 or HIS-SIVA2 (control) was transfected into HEK293T cells. SIVA2 was immunoprecipitated using anti-FLAG M2 beads and the co-precipitated cellular TRAF2 was assayed by western blotting. The total cellular level of TRAF2 is shown at the bottom. (B) SIVA2 binds TRAF2 inducibly. Treatment of the cells EcR293-CD27-SIVA2 with ponasterone for 2 h to induce SIVA2, and treated with CD70 as indicated was followed by immunoprecipitation of TRAF2. […] FLAG-tagged TRAF2 was immunoprecipitated from transfected HEK293T cells with anti-FLAG M2 beads, eluted from the beads using FLAG peptide and incubated with GST-SIVA2 or its mutant, and then subjected to immunoprecipitation and western blotting as indicated. […] Left panel: Binding in vitro. Recombinant cIAP1 was incubated with GST-SIVA2 or its mutant. Right and bottom panels depict binding in transfected HEK293T cells. Right panel: Cells were transfected with HIS-SIVA2, HIS-SIVA2 (1-58), or FLAG-TRAF2. After 28 h the endogenous cIAP1 was immunoprecipitated. MG132 was applied for the last 6 h of incubation. Bottom panel: Cells were transfected with FLAG-SIVA2, FLAG-SIVA2 (1-58) or, as a specificity control, FLAG-GST-BR3-ICD* (in which the BAFF receptor intracellular domain is mutated at its TRAF3-binding region (PVPAT>AVAAA)). […] N/A, not analyzed. […]

cIAP1 [1] = target: T2, cIAP1 (Homo sapiens, UniProt Q13490); experiment: In-vitro protein-binding assay, cIAP1; settings: recombinant cIAP1 incubated with GST-SIVA2
Protocol: as §1

cIAP1 [2] = target: T2, cIAP1; experiment: In-vitro substrate ubiquitination assay, cIAP1; assay type: biochemical; settings: recombinant cIAP1, E2 UbCH5b or Ubc13/Uev1a
Protocol: FIG. 9 SIVA2 mediates ubquitination of both TRAF2 and cIAP1. (A) cIAP-1 is required for SIVA2-mediated TRAF2 ubiquitination in cells. HEK293T cells were transfected with cIAP1 siRNA and, 24 h later, with the other plasmids as indicated. The extent of ubiquitination of the TRAF2 immunoprecipitated from the lysates of these cells, as well as the cellular levels of the endogenous cIAP1 and cIAP2 and the transfected ubiquitin, were determined by western blot analyses. (B) SIVA2, but not SIVA1, enhances K48-linked polyubiquitination of TRAF2 in cells. HEK293T cells grown in 90-mm plates were transfected by the calcium phosphate method with 4 μg of FLAG-TRAF2 (C34A), together with […] of HA-ubiquitin mutant plasmids and 6 μg of HIS-SIVA2 or HIS-SIVA2 (C73A) or HIS-SIVA1. The cells were lysed 24 h after transfection and TRAF2 was precipitated and analyzed as indicated. Wild-type SIVA2 and SIVA1, as well as SIVA2 (C73A) mutant, co-precipitated with TRAF2 (bottom panel). […]
In-vitro ubiquitination. […] Supernatants of the reaction were analyzed for free polyubiquitin chains formed in solution. For assay of self-ubiquitination of SIVA2 the glutathione beads were washed three times with a buffer containing 20 mM HEPES pH 7.6, 250 mM NaCl, 1 mM DTT, 1% Triton X-100 and Complete Protease Inhibitor Cocktail, boiled with LDS sample buffer (Invitrogen), and analyzed by western blotting. […]

T2 sequence (Q13490 whole entry, species assumed): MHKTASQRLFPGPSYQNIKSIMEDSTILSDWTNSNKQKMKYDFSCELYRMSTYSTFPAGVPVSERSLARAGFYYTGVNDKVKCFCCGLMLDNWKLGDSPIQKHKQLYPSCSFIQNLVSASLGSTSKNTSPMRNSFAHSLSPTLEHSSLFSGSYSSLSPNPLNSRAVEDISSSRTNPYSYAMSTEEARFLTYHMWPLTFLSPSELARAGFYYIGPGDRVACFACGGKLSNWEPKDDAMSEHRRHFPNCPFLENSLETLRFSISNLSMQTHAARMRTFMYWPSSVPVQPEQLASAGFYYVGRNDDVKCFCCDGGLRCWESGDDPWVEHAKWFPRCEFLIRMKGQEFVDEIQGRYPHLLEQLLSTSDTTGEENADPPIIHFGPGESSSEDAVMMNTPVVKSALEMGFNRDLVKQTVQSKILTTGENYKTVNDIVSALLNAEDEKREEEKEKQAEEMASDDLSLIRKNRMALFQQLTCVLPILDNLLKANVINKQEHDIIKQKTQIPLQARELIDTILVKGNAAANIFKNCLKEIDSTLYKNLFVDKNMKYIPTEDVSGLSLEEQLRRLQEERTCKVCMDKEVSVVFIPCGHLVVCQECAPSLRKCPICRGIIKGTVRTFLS

binding of SIVA2 to TRAF2 in vitro (TRAF2): binds TRAF2 in vitro
binding of SIVA2 to cIAP1 (cIAP1 [1]): binds at its N-terminus to cIAP1
ubiquitination of cIAP1 (cIAP1 [2]): effectively ubiquitinated
B1: SIVA2: short splice variant of SIVA, E3 ligase (NM—021709, SEQ ID NO:11); recombinant GST fusion in in-vitro tests (protein)
chain: MPKRSCPFADVAPLQLKVRVSQRELSRGVCAERYSQEVFDPSGVASIACSSCVRAVDGKAVCGQCERALCGQCVRTCWGCGSVACTLCGLVDCSDMYEKVLCTSCAMFET
modifications: left off: a dimerising Fc or GST; large carriers; small tags and cut ends
notes: recombinant GST fusion in in-vitro tests
